Read-outs that look alike come from different tables or passages of the source. Residues, ends and D or L forms follow the SMILES beside them. No end group written: not given here.
Columns and labels:
HLA-DR0405 = HLA-DR0405 (Homo sapiens, UniProt P01903+P01911, A100R/A169T/D86S/F76Y/I96L/K127E/L162R/M171V/N62H/P40V/Q125Y/R42H/S133A/S149N/S66Y/V115G/V209L/W38E); experiment: Indirect; type: binding; conditions: read-out: IC50 (uM) 0405; pH 5.4
HLA-DR0403 [1] = target: T1, HLA-DR0403 (Homo sapiens, UniProt P01903+P01911, A100R/A103E/A169T/F76Y/I96L/K127E/L162R/M171V/N62H/P40V/Q125Y/R42H/S133A/S149N/S66Y/V209L/W38E); experiment: biochemical; type: binding
HLA-DR0401 [2] = target: T2, HLA-DR0401 (Homo sapiens, UniProt P01903+P01911, A100K/A169T/F76Y/I96L/K127E/L162R/M171V/N62H/P40V/Q125Y/R42H/S133A/S149N/S66Y/V115G/V209L/W38E); experiment: biochemical; type: binding
HLA-DR0403 [3] = target: T1, HLA-DR0403; experiment: Kinetic analysis; type: binding; conditions: pH 5.4, read-out: Kd 0403 (dissociation rate constant)
HLA-DR0401 [4] = target: T2, HLA-DR0401; experiment: Kinetic analysis; type: binding; conditions: pH 5.4, read-out: Kd 0401 (dissociation rate constant)
DR0403 = DR0403 (Homo sapiens, UniProt P01903+P01911, A100R/A103E/A169T/F76Y/I96L/K127E/L162R/M171V/N62H/P40V/Q125Y/R42H/S133A/S149N/S66Y/V209L/W38E); experiment: 16-hour direct binding assay of biotinylated reference peptide, DR0403
[5] = target: HLA-DR0403 (DRA1*0101/DRB1*0403), soluble recombinant (human); experiment: ELISA
[6] = target: HLA-DR0401 (DRA1*0101/DRB1*0401), soluble recombinant (human); experiment: ELISA
[7] = target: HLA-DR0403 (DRA1*0101/DRB1*0403), soluble recombinant (human); experiment: ELISA; remark: listed apart in the source

CC[C@H](C)[C@H](NC(=O)[C@@H](NC(=O)[C@@H]1CCCN1C(=O)[C@H](C)NC(=O)[C@@H](N)C(C)C)C(C)C)C(=O)N[C@@H](CCCCN)C(=O)N[C@@H](C)C(=O)N[C@@H](CCCNC(=N)N)C(=O)N[C@@H](CCSC)C(=O)N[C@@H](CCSC)C(=O)N[C@@H](CCC(=O)O)C(=O)N[C@@H](Cc1ccc(O)cc1)C(=O)NCC(=O)N[C@H](C(=O)N[C@H](C(=O)N[C@@H](CCSC)C(=O)N[C@H](C(=O)N[C@@H](CO)C(=O)N[C@@H](Cc1ccc(O)cc1)C(=O)N[C@@H](CCC(N)=O)C(=O)O)C(C)C)[C@@H](C)O)[C@@H](C)O [GAD65p67] (H-VAPVIKARMMEYGTTMVSYQ-OH) was tested, and the IC50 (HLA-DR0405) was > 10 µM, the IC50 (HLA-DR0403 [1]) was 1610 nM and the IC50 (HLA-DR0401 [2]) was 640 nM. It also gave a koff (HLA-DR0403 [3]) of 7.67e-05 s⁻¹ and a koff (HLA-DR0401 [4]) of 0.000149 s⁻¹.

In the case of NFIRMVISNPAAT [557I], the “ED50 to bind 0.05 µM DR0403” value (DR0403) is reported as 10 nM.

In the case of “biotinylated influenza hemagglutinin derived peptide HA306”, the EC50 [5] is reported as > 15000 nM.

For CC(C)C[C@H](NC(=O)[C@H](CC(C)C)NC(=O)[C@@H]1CCCN1C(=O)[C@H](CC(=O)O)NC(=O)[C@H](Cc1ccccc1)NC(=O)[C@H](C)NC(=O)CNC(=O)[C@H](Cc1ccc(O)cc1)NC(=O)[C@@H](NC(=O)[C@@H](NC(=O)[C@@H](NC(=O)CNC(=O)[C@H](C)NC(=O)[C@@H](NC(=O)[C@H](C)NC(=O)[C@H](CO)NC(=O)[C@@H](NC(=O)[C@H](CC(C)C)NC(=O)[C@H](Cc1ccccc1)NC(=O)[C@@H]1CCCN1)C(C)C)[C@@H](C)O)[C@@H](C)O)[C@@H](C)O)C(C)C)C(=O)O [GAD65p42] (H-PFLVSATAGTTVYGAFDPLL-OH), the IC50 (HLA-DR0405) was > 10 µM, the IC50 (HLA-DR0403 [1]) was 1270 nM and the IC50 (HLA-DR0401 [2]) was 2070 nM. The koff (HLA-DR0403 [3]) was 2.02e-05 s⁻¹ and the koff (HLA-DR0401 [4]) was 5.42e-05 s⁻¹.

Molecule GAGSLQPLALEGSLQKRGIV [preproinsulin p10] has an IC50 [6] of 8750 nM.

YDLSYDTGDKALQCGRHVDV [GAD65p55] was tested, and the IC50 [6] was 10000 nM.

Work on YAIKTGHPRYFNQLSTGLDM [GAD65p22] yielded an IC50 [7] of 10000 nM.

With TSICSLYQLENYCN [preproinsulin p13] the IC50 [7] was 470 nM.

CFWYIPPSLRTLEDNEERMS [GAD65p64] showed an IC50 [7] of 1000 nM.

Molecule RGIVEQCCTSICSLYQLENY [preproinsulin p12] has an IC50 [6] of 220 nM and an IC50 [7] of 1890 nM.

VAPVIKARMMEYGTTMVSYQ (not fully specified) [biotinylated GAD65p67] was tested, and the koff [6] was 0.000149 s⁻¹, the t1/2 [6] was 77.4 min and the koff [7] was 7.67e-05 s⁻¹. It also gave a t1/2 [7] of 151 min.

With CACDQKPCSCSKVDVNYAFL [GAD65p10] the IC50 [7] was 3550 nM.

Molecule YAMMIARFKMFPEVKEKGMA [GAD65p32] has an IC50 [7] of 10000 nM.

Work on NFIRMVISNPAAT (not fully specified) [biotinylated GAD65-557I] yielded an EC50 [7] of 10 nM.

Molecule PFLVSATAGTTVYGAFDPLL (not fully specified) [biotinylated GAD65p42] has a koff [6] of 5.42e-05 s⁻¹, a t1/2 [6] of 3.6 min and a koff [7] of 2.02e-05 s⁻¹. It also gave a t1/2 [7] of 9.6 min.

From PMC3046295 (Journal of autoimmunity, 2011)
